PMC6048764, “Myricetin antagonizes semen-derived enhancer of viral infection (SEVI) formation and influences its infection-enhancing activity” (Retrovirology, 2018)

B1: PAP257–273 Leu258A (peptide, UniProt P15309 257-273, looked up)
peptide: RAQGGVLVNEILNHMKR
notes: source: synthetic peptide
B2: SEM1_(86–107) (peptide, UniProt P04279 86-107, looked up)
peptide: DLNALHKTTKSQRHLGGSQQLL
notes: source: synthetic peptide (Scilight Biotechnology LLC, Beijing)
B3: PAP257–273 Leu268A (peptide, UniProt P15309 257-273, looked up)
peptide: RLQGGVLVNEIANHMKR
notes: source: synthetic peptide
B4: PAP257–273 Arg273A (peptide, UniProt P15309 257-273, looked up)
peptide: RLQGGVLVNEILNHMKA
notes: source: synthetic peptide
B5: SEM2_(86–107) (peptide, UniProt Q02383 86-107, looked up)
peptide: DLNALHKATKSKQHLGGSQQLL
notes: as for B2
B6: PAP257–273 GIn259A (peptide, UniProt P15309 257-273, looked up)
peptide: RLAGGVLVNEILNHMKR
notes: source: synthetic peptide

Target: the molecule itself
Test: thioflavin T fluorescence; amyloid fibril formation; peptide 3 mg/ml agitated at 1400 rpm at 37 °C for 48 h, without myricetin

Binding result, binds:
B1, B2, B3, B4, B5, B6
